From US20230130737A1
pKd: −log10 of the molar value.

Experiments:
[1] = molecular target: trifunctional high FHR4-valence heteromultimer multi-FHR4.C4bpα.His/multi-2D3 VHH anti-Her2.C4bpα.FLAG/mono-eGFP.C4bpβ (human) (UniProt Q92496); assay: SPR (Biacore); FH multimer immobilised via Ni2+/NTA, C3b dose series as analyte
[2] = molecular target: trifunctional high FHR4-valence heteromultimer multi-FHR4.C4bpα.His/multi-2D3 VHH anti-Her2.C4bpα.FLAG/mono-eGFP.C4bpβ (human) (UniProt Q92496); assay: SPR (Biacore); FH multimer immobilised via Ni2+/NTA, C3b dose series with about 20 µg/ml Factor B as analyte
[3] = molecular target: trifunctional high FHR4-valence heteromultimer multi-FHR4.C4bpα.His/multi-2D3 VHH anti-Her2.C4bpα.FLAG/mono-eGFP.C4bpβ (human) (UniProt Q92496); assay: SPR (Biacore); affinity with factor B against C3b alone
[4] = molecular target: trifunctional high FHR4-valence heteromultimer multi-FHR4.C4bpα.His/multi-2D3 VHH anti-Her2.C4bpα.FLAG/mono-eGFP.C4bpβ (human) (UniProt Q92496); assay: SPR (Biacore); bound RU with factor B against C3b alone

trifunctional high FHR4-valence heteromultimer multi-FHR4.C4bpα.His/multi-2D3 VHH anti-Her2.C4bpα.FLAG/mono-eGFP.C4bpβ (human), sequence (Q92496 other isoform, or with tags, fused parts or gaps, chain 1 of 3): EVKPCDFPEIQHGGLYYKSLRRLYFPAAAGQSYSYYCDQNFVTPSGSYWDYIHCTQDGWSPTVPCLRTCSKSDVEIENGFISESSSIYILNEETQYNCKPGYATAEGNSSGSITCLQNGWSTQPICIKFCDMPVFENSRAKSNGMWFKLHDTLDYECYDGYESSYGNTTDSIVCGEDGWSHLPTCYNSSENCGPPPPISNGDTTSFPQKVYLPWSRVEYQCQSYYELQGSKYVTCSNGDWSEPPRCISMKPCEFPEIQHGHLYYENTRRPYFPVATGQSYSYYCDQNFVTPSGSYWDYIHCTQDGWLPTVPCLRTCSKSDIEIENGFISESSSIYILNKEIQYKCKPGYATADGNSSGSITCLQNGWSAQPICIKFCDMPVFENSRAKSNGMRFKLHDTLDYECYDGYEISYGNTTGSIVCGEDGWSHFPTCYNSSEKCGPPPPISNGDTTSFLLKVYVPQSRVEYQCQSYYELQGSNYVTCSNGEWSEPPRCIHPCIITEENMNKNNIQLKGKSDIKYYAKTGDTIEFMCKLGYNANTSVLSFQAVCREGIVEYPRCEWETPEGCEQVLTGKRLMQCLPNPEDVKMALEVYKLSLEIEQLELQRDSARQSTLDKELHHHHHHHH
trifunctional high FHR4-valence heteromultimer multi-FHR4.C4bpα.His/multi-2D3 VHH anti-Her2.C4bpα.FLAG/mono-eGFP.C4bpβ (human), sequence (P04003 540-597, chain 2 of 3, further chain): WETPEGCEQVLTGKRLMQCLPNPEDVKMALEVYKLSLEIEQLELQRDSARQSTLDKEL
trifunctional high FHR4-valence heteromultimer multi-FHR4.C4bpα.His/multi-2D3 VHH anti-Her2.C4bpα.FLAG/mono-eGFP.C4bpβ (human), sequence (P20851 137-252, chain 3 of 3, further chain): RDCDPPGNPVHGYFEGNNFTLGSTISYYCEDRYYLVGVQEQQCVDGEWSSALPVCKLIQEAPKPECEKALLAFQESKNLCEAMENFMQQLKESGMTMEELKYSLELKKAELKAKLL

C3b (from UniProt P01024 749-1663) was tested, and the pKd [1] was 6.02.
“C3b in the presence of Factor B (about 20 µg/ml) (from UniProt P01024 23-1663; P00751 26-764)” gave a pKd [2] of 8.06, an increase of binding affinity against C3b alone [3] of 2 logs and an enhancement factor of bound C3b against C3b alone [4] of 5 fold.
